In US20060008800A1 (published 2006):

Columns and labels:
[1] = biological target: Apocalmodulin (Calcium-free Calmodulin) (UniProt P0DP23 2-149); assay: tryptophane fluorescence, 10 µM peptide, equimolar Apocalmodulin, 1 mM EGTA
Ca2+/Calmodulin = Ca2+/Calmodulin (UniProt P0DP23 2-149); assay: tryptophane fluorescence, 10 µM peptide, equimolar Calmodulin, excess calcium

B1: Munc13-1 peptide reflecting the Calmodulin binding site of rat Munc13-1 (peptide)
peptide: CRAKANWLRAFNKVRMQLQEAR
notes: Synthesized and purified by standard procedures; used at 10 uM in the tryptophane fluorescence assay; also called peptide 13-1; Munc13-1 derived peptide
binding result [1]: binds
binding result (Ca2+/Calmodulin): binds
